Data taken from US20230407373A1 (priority 2020, published 2023).
Like-named read-outs stand apart in the source and are kept apart here.

Columns and labels:
Assay type in all cases: binding
gRNA of HCoV-OC43 = test system: gRNA of HCoV-OC43
SARS-CoV-2 gRNA = conditions: […]; LC-MS/MS; Probe I sample (first 199 lines of Table 2)
[1] = test system: SARS-CoV-2 gRNA and sgRNAs; conditions: […]
HCoV-OC43 gRNA and sgRNA = conditions: for target (unweighted spectral count, OC43 Probe II capture): tested against no-probe control, FDR<10%

B1: SF1: host protein, UniProt Q15637 (protein, UniProt Q15637 2-639, looked up)
Splicing factor 1: ATGANATPLDFPSKKRKRSRWNQDTMEQKTVIPGMPTVIPPGLTREQERAYIVQLQIEDLTRKLRTGDLGIPPNPEDRSPSPEPIYNSEGKRLNTREFRTRKKLEEERHNLITEMVALNPDFKPPADYKPPATRVSDKVMIPQDEYPEINFVGLLIGPRGNTLKNIEKECNAKIMIRGKGSVKEGKVGRKDGQMLPGEDEPLHALVTANTMENVKKAVEQIRNILKQGIETPEDQNDLRKMQLRELARLNGTLREDDNRILRPWQSSETRSITNTTVCTKCGGAGHIASDCKFQRPGDPQSAQDKARMDKEYLSLMAELGEAPVPASVGSTSGPATTPLASAPRPAAPANNPPPPSLMSTTQSRPPWMNSGPSESRPYHGMHGGGPGGPGGGPHSFPHPLPSLTGGHGGHPMQHNPNGPPPPWMQPPPPPMNQGPHPPGHHGPPPMDQYLGSTPVGSGVYRLHQGKGMMPPPPMGMMPPPPPPPSGQPPPPPSGPLPPWQQQQQQPPPPPPPSSSMASSTPLPWQQNTTTTTTSAGTGSIPPWQQQQAAAAASPGAPQMQGNPTMVPLPPGVQPPLPPGAPPPPPPPPPGSAGMMYAPPPPPPPPMDPSNFVTMMGMGVAGMPPFGMPPAPPPPPPQN
target (spectral count) (gRNA of HCoV-OC43; type g_36_m, HCoV-OC43-infected HCT-8 cells, 36 hpi, Probe I): 12
background (spectral count) (gRNA of HCoV-OC43; type g_36_m, uninfected-probe control, 36 hpi, Probe I): 2
target (spectral count, OC43 Probe I RNP capture) (gRNA of HCoV-OC43; type n_48_v: 48 hours post-infection, infected cells, OC43 Probe I, unweighted spectral count): 12
background (spectral count, no-probe control) (gRNA of HCoV-OC43; type n_48_v: 48 hours post-infection, no-probe control on infected cells): 1
target (unweighted spectral count of the protein in the RNP capture) (SARS-CoV-2 gRNA): 17
target (unweighted spectral count of the protein in the RNP capture experiment) ([1]; LC-MS/MS label-free quantification, probe pool not given): 6
back-ground (unweighted spectral count of the protein in the control experiment) ([1]; protein background of the control (e.g. no-probe) experiment): 1
target (unweighted spectral count, OC43 Probe II capture) (HCoV-OC43 gRNA and sgRNA; 24 hpi, type n_24_v): 4
target (unweighted spectral count, OC43 Probe II capture) (HCoV-OC43 gRNA and sgRNA; 36 hpi, type n_36_v): 8
target (spectral count) (HCoV-OC43 gRNA and sgRNA; type s_36_m, HCoV-OC43-infected HCT-8 cells, 36 hpi, Probe II): 8
background (spectral count) (HCoV-OC43 gRNA and sgRNA; type s_36_m, uninfected-probe control, 36 hpi, Probe II): 1
